Values quoted from earlier work in paper PMC2814318.

Columns and labels:
[1] = target: CaV β2a subunit (Rattus norvegicus) (UniProt Q8VGC3)
[2] = target: CaV β1b subunit (Rattus norvegicus) (UniProt P54283)
Sequence of CaV β1b subunit (Rattus norvegicus) (P54283 whole entry): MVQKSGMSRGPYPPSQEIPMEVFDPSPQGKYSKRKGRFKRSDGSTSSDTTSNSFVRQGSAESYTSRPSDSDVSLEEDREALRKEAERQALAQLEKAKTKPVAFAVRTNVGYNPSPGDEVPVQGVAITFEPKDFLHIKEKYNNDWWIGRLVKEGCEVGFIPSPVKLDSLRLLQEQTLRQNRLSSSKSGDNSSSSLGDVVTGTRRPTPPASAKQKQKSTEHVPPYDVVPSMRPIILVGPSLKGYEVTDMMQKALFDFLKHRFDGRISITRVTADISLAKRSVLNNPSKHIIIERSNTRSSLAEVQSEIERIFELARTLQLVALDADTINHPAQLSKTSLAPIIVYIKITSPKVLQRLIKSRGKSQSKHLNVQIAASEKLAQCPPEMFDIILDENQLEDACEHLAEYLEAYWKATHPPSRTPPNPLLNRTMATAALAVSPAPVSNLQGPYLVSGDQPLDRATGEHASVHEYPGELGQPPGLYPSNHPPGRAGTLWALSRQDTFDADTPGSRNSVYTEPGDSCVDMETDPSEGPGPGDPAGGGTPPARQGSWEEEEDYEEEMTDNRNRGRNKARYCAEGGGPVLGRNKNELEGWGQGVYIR

Sequence of CaMKIIδ (P15791 2-533, stated change not applied): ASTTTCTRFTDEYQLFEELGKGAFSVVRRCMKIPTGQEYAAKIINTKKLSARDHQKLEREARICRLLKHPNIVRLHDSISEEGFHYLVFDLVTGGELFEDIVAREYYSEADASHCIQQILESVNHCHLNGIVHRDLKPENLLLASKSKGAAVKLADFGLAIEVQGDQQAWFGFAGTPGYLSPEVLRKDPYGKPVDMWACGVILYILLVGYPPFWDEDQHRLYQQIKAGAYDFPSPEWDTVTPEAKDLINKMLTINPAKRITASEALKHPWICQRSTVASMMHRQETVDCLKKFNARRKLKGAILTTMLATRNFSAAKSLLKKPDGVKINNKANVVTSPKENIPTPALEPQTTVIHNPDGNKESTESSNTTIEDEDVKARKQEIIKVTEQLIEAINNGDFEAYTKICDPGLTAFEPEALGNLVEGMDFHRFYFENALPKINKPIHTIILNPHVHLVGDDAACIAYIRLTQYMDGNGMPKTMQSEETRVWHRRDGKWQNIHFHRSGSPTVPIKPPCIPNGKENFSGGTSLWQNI

Kd [1]: 100 nM
Kd [2]: 100 nM
Substance: CaMKIIδ (from UniProt P15791)
